Test results as given in article PMC9354048.

Target: (opt)EsTKγ (Eptatretus stouti thread keratin γ, from a codon-optimised gene) (Eptatretus stouti)
Assay: co-assembly by dialysis out of urea, gel separated by ultrafiltration centrifugation and analysed by SDS-PAGE; crudely purified proteins, each 1.0 mg/ml in 8 M urea, 0.02 M NaH2PO4, 0.5 M NaCl, mixed 1:1; gradient dialysis 8 M to 4 M to 2 M to 0 M urea in 2 mM Tris, 1 mM DTT, pH 9, 4°C, 72 h; concentrated in a 10 kDa ultrafiltration tube; gel-like product picked up, diluted and run on SDS-PAGE

(opt)EsTKα (Eptatretus stouti thread keratin α, from a codon-optimised gene) (natural protein)
stoichiometry N: 1
